Data reported in the supplement of paper PMC12764529.
± gives the half width of the 95% confidence interval.

Tests used:
[1] = folding stability dG unfold (combined trypsin and chymotrypsin); higher = more stable
Summary of the method: (§1)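 Digests were run with trypsin and chymotrypsin at 11 concentrations in threefold dilutions, plus a no-protease condition, on designed mini-proteins in a PA-tagged cDNA display construct. The mini-proteins were under 80 residues, had no cysteine, and were kept only when AlphaFold2 dimer inter-PAE was above 15. After sequencing, Bayesian fitting of the counts gave K50, from which unfolding free energy was derived against a sequence-predicted unfolded-state K50 and a shared folded-state K50, per protease or combined.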

[2] = folding stability dG unfold from chymotrypsin proteolysis; higher = more stable
Summary of the method: as §1

[3] = folding stability dG unfold from trypsin proteolysis; higher = more stable
Summary of the method: as §1

Sequence | folding stability dG unfold [1] | folding stability dG unfold [2] | folding stability dG unfold [3]
SMNIHIPILTRPDVDEETIEEEVEALAAELAEKLGLPEGVEVEIEPEPLPEDGVVYHVTLRVGDVEFKGESA [r9_776_TrMRF] | 0.0299 ± 0.33 kcal/mol | 0.0835 ± 0.4 kcal/mol | 0.168 ± 0.14 kcal/mol
SAGGSAGGSAGGAVTPETIELPDATITVYTYPEGVVVEVTDPETGQATVISPEEFERLLASAGGSAGGSAGG [r7_372_JUSTAS] | 1.5 ± 0.057 kcal/mol | 1.21 ± 0.034 kcal/mol | 1.78 ± 0.044 kcal/mol
SAGGSAGGSAGGDLVITEVRVEFDPKDGTLRVTARFELPNTGETVEVTLEFEIPYPDGASAGGSAGGSAGGS [r10_296_TrMRF] | 2.85 ± 0.32 kcal/mol | 2.86 ± 0.15 kcal/mol | 2.99 ± 0.35 kcal/mol
SAGKETVKLVVVNKETNKVVEVTFNKDGEIVSVKVFEVKPAPPPPPVELSEEQLVKTKDGKWRSLEELKSAG [r5_685_TrROS_Hall] | 0.829 ± 0.11 kcal/mol | 1.19 ± 0.075 kcal/mol | -0.369 ± 0.13 kcal/mol
SAGGSAGGNKSYTVIIRFPMKRKEDPDGEDKKPRPVTIEYTVKSPEDANELKNKLKDNGAEIVPSAGGSAGG [r6_141_TrROS] | 0.531 ± 0.12 kcal/mol | 0.698 ± 0.12 kcal/mol | 0.263 ± 0.15 kcal/mol
SAGGMFKGPDGNWKTYKTTKPGLTKSDIGPFVEELVEKFLKDHGLNPENVSAKAEYNPSTGTVNVYVGSAGG [r13_913_TrMRF] | 0.576 ± 0.08 kcal/mol | 0.783 ± 0.083 kcal/mol | 0.041 ± 0.039 kcal/mol
SAMVSPEEAAKLIAEKIREEHPDPNIVVPVKVEYDPETNTTTITVTVKYPDDPSTETFTYTLAPDDVLKSAG [r14_849_JUSTAS] | 1.9 ± 0.082 kcal/mol | 2.19 ± 0.11 kcal/mol | 1.53 ± 0.044 kcal/mol
SGVLVVTHPDGSVSTVPFTHPDGLVVDISAGVDAPLYATVVRLLPDGTPEPLPVFEFDSIEDVLEALAEASA [r9_942_TrMRF] | 1.61 ± 0.023 kcal/mol | 1.983 ± 0.014 kcal/mol | 0.545 ± 0.016 kcal/mol
SAGGSAGGSVKPGQEIEVRVELTYDEETGELTIRREVVNKETGELIAEEEITISLEDLPPELLSAGGSAGGS [r12_145_TrROS_Hall] | 1.63 ± 0.076 kcal/mol | 1.51 ± 0.04 kcal/mol | 1.83 ± 0.083 kcal/mol
SAGGSASSMTTTKKLSTGEKSVVELSTSPSTVTLVTTDPETGTVTVTTYTPSGTGPVATTTTVPAPSAGGSA [r15_137_JUSTAS] | 0.177 ± 0.097 kcal/mol | 0.499 ± 0.14 kcal/mol | -0.431 ± 0.13 kcal/mol
SAGGSAGGSAGGPLIVFERNADGTLTAVAVDEETGEVTVTRVTLKDGKLTVETETLPLDESAGGSAGGSAGG [r7_28_TrROS_Hall] | 1.65 ± 0.042 kcal/mol | 1.82 ± 0.017 kcal/mol | 1.49 ± 0.048 kcal/mol
SAGGMTKTILIYDEETGVLVRIEIKVNPETGEIEEIKIETETLEDGTVKMKITLKDGTEIEVEIKPLPSAGG [r13_515_TrROS_Hall] | 3.25 ± 0.62 kcal/mol | 3.08 ± 0.28 kcal/mol | 3.45 ± 0.46 kcal/mol
SAGGSAGGSAGTLKLTLEVTVTRLYRLPDGSGSLVAETVRVRVEVELEVDELDEDGRLLLSAGGSAGGSAGG [r11_558_TrROS_Hall] | 3.18 ± 0.07 kcal/mol | 3.269 ± 0.024 kcal/mol | 3.08 ± 0.14 kcal/mol
SAKEEYYKVRIYFPETNEVVEIEAKSEEEALEALKKLLNEPNIVKIEIEKVEVEEEPEEKEYSEEELKSSAG [r14_747_TrROS_Hall] | 2.32 ± 0.12 kcal/mol | 2.39 ± 0.046 kcal/mol | 2.02 ± 0.04 kcal/mol
SAGGSAGGSAGGSSSIYYDPRYPNVAVNPETGEAVTGIPLEELEKLGATPVGPDWVRIDSAGGSAGGSAGGS [r4_306_TrMRF] | -0.0656 ± 0.13 kcal/mol | 0.196 ± 0.061 kcal/mol | -0.659 ± 0.15 kcal/mol
SMVTETSEEVKLPSPVRLLIDKKITTFPESGVVEVPTLVTVIPPSGPDTTLPYRVLYTINDDTYTEKRLLSA [r9_154_JUSTAS] | -0.125 ± 0.14 kcal/mol | -0.0857 ± 0.12 kcal/mol | -0.277 ± 0.085 kcal/mol
SAGGSAGGSAGGSMELIPTPEDTVTVVETTPVAPTPNGTPVPATVTTTTLPKEEVEAAASAGGSAGGSAGGS [r4_238_JUSTAS] | 2.1 ± 0.062 kcal/mol | 1.53 ± 0.03 kcal/mol | 2.71 ± 0.057 kcal/mol
SAGGGHMVNVTLTGSSIEEIKKELEELAKKYGFVINPKKVEKLPGPKYKITLNIKAPDEVVELIKKKSAGGS [r8_357_JUSTAS] | 1.72 ± 0.13 kcal/mol | 2.16 ± 0.053 kcal/mol | 0.943 ± 0.044 kcal/mol
SAGGSAGGSAGMVINVTVTLKNSTGTITITLPVPPDLLDEVLKELKEKPDYEVVSVDTSPSAGGSAGGSAGG [r11_692_JUSTAS] | 2.67 ± 0.14 kcal/mol | 2.79 ± 0.16 kcal/mol | 2.47 ± 0.11 kcal/mol
SAGGLKEIAKQLGPGADKVEIEWEPQPHDDMEMYRWKIRVKNPNNGKKRKLEVSIMYDPNGNIRSIMISAGG [r13_358_TrROS] | 2.34 ± 0.14 kcal/mol | 2.38 ± 0.077 kcal/mol | 1.85 ± 0.12 kcal/mol
SAEPITITWPNGMQIPLYKDDDGEIEIKIQMYDPKDGKPVGEQEQRIDPDDNTIEFRFPNGWPFSITIPDSA [r9_56_TrROS] | 0.473 ± 0.22 kcal/mol | 0.0536 ± 0.57 kcal/mol | 0.835 ± 0.11 kcal/mol

Sequence | folding stability dG unfold [1] | folding stability dG unfold [2] | folding stability dG unfold [3]
SAGGSAGGMTPEELAEQKAEELREKLLAEGRPVSLKITKVTYEVDPKTGTVKVTSDIEIVYGPGSAGGSAGG [r6_454_JUSTAS] | 0.986 ± 0.24 kcal/mol | 0.434 ± 0.29 kcal/mol | 1.04 ± 0.08 kcal/mol
SAGGSAGGMSPDAKPIGEKTDESPGPEKVTTTTLKSPDPSLTYTVTTTTVGSTTTTTTTAVPVLSAGGSAGG [r6_923_JUSTAS] | 0.261 ± 0.1 kcal/mol | 0.134 ± 0.4 kcal/mol | 0.439 ± 0.051 kcal/mol
SAGGSAGGSAKPVYKIRIVVKKDGKEFVKEIEVPEDEEEAEALAKELAKKPEVEKVEVEKVSAGGSAGGSAG [r3_310_TrROS_Hall] | 1.62 ± 0.18 kcal/mol | 1.84 ± 0.058 kcal/mol | 0.739 ± 0.075 kcal/mol
SIYIMLPVPPGKPYKLSIEIEMPDNGRPYEYDGTFNPENGWVMFPVRFPDNGHPIPPEDFKVKVELEPPKSA [r9_928_TrROS] | 2.07 ± 0.23 kcal/mol | 2.45 ± 0.14 kcal/mol | 1.42 ± 0.072 kcal/mol
SAGGSAGGSAMKVITLPENADINKVIEAVEAGSPILVKIVDPKSSKTTDLPLPSKEAVEKLSAGGSAGGSAG [r3_362_JUSTAS] | -0.33 ± 0.15 kcal/mol | -0.394 ± 0.18 kcal/mol | -0.468 ± 0.17 kcal/mol
SDPGHKFKMEIVREIYLPGQIRIFVHKMEHPNGNPWVNVMVRNPDGQMEPIAMVPSDDPDAKDEALKLIKSA [r9_1069_TrROS] | 0.391 ± 0.1 kcal/mol | 0.506 ± 0.14 kcal/mol | 0.035 ± 0.12 kcal/mol
SAGGSAGGPLVVILPDPETGLFHVRVRYPDGTVESLGPFPSLEEALEALPSEGLGRVEVRPYLKSAGGSAGG [r6_307_TrMRF] | 1.28 ± 0.049 kcal/mol | 1.44 ± 0.038 kcal/mol | 1.05 ± 0.014 kcal/mol
SAGGSAGGSAGGKIKDAEIVSVEYDPETGVLYMEVKLEDGSTYRIRFDLKTNKLTIEPVSAGGSAGGSAGGS [r10_674_TrROS_Hall] | 4.56 ± 0.3 kcal/mol | 4.91 ± 0.2 kcal/mol | 3.29 ± 0.36 kcal/mol
MFKPGTKVTFGDKTVEVPEGDELYIFEGKVFGTSEVEAVLENMSDDAVGYKLVVEDETGKIVKVEEFVFKPS [r1_304_TrMRF] | -0.406 ± 0.43 kcal/mol | -0.172 ± 0.51 kcal/mol | -0.451 ± 0.25 kcal/mol
SAGGVLPSDPVTVTVTIPVPAANAETDGRLPPQPQTINLEIGGPSEEAIRALLEALFPPGTEYEILLSAGGS [r16_282_JUSTAS] | 1.32 ± 0.06 kcal/mol | 0.691 ± 0.034 kcal/mol | 1.77 ± 0.064 kcal/mol
SAGGMVTLTLPSPDGSTLTVTVEKDPNADYYRATVTTHHPDGTVTVTESVIHPDGTTTTLATTTLPASAGGS [r16_213_JUSTAS] | 2.23 ± 0.12 kcal/mol | 2.22 ± 0.04 kcal/mol | 2.11 ± 0.08 kcal/mol
SAGLPIPEGATVKTLESSESVEGNKTVKTDKIIVTFPDGSTKEVEVVTTYDPNGNPTTTYIVGNKKIPLSAG [r5_507_JUSTAS] | 1.32 ± 0.059 kcal/mol | 1.19 ± 0.058 kcal/mol | 1.45 ± 0.052 kcal/mol
SAGGSAGGSAGGKEKKELYVVIKVDKNMTPEEIAEKLKKEFNVDKVEVEVREDGYLVVKVSAGGSAGGSAGG [r7_273_TrROS_Hall] | 1.62 ± 0.19 kcal/mol | 1.74 ± 0.084 kcal/mol | 1.03 ± 0.098 kcal/mol
SAGMPKPVVTPVTLPVNGALITFTVDPEVPLATFTFDEPDVNAVAEEYAKERAAELEKAGIPTKIVPSSAGG [r19_354_JUSTAS] | 0.662 ± 0.16 kcal/mol | 0.743 ± 0.11 kcal/mol | 0.3 ± 0.041 kcal/mol
SAGGSAGGSSPEENLETQVETELLEEFKPGDKPRKLVKTTVTYPDGTTKEEIVTIDENGNILLSAGGSAGGS [r12_755_JUSTAS] | -0.0945 ± 0.1 kcal/mol | -0.117 ± 0.065 kcal/mol | -0.206 ± 0.049 kcal/mol
SAGGSAGGSAGSTALVETREFEDGTVVERVEVTLPNGEVLERTVVLTRDEAGNVVEEEVESAGGSAGGSAGG [r11_709_JUSTAS] | 0.958 ± 0.053 kcal/mol | 1.29 ± 0.021 kcal/mol | 0.224 ± 0.03 kcal/mol
SAGGSAKVTIDTDNGIIKIEVGGKLIAEIEIPPGFPGGIYLEYEPNPPTLKFYIYTKNGPVYINDISAGGSA [r2_399_TrMRF] | 3.69 ± 0.32 kcal/mol | 3.96 ± 0.17 kcal/mol | 3.5 ± 0.43 kcal/mol
SAGKTRTINFPGFQIQVQRDPDGKKEITIMFDNPEQRKQMIEQNPFLREFIEWAEKDGLKVEIHVMPPKSAG [r14_873_TrROS] | 2.06 ± 0.18 kcal/mol | 2.04 ± 0.15 kcal/mol | 1.85 ± 0.071 kcal/mol
SAMTPEEIKERLAAELPPSAEVMTTETFKEGDVEYVKITLRTPDSLSEATYNLETGEIERTPIGLDVPQSAG [r14_737_JUSTAS] | 0.792 ± 0.15 kcal/mol | 0.923 ± 0.13 kcal/mol | 0.423 ± 0.13 kcal/mol
SAGGSAGGSAGKMKIRVKIKRKDGKTLVIEGMSLEEIKELAEKEGFEIEKVEVVEVEPEESAGGSAGGSAGG [r11_283_TrROS_Hall] | 4.02 ± 0.21 kcal/mol | 4.24 ± 0.13 kcal/mol | 3.23 ± 0.26 kcal/mol
SAGGSAGGMVLVLRFPLGEPALIALYDPETGEVHVYDPGTRELLGTFPLPIEDFLELGAEAEPVSAGGSAGG [r6_831_TrMRF] | 1.84 ± 0.12 kcal/mol | 2.2 ± 0.094 kcal/mol | 0.698 ± 0.051 kcal/mol
